Biological target: SARS CoV-1 RBD (SARS-CoV-1)
Assay: ELISA

In the case of REGN10933 (Casirivimab) (antibody), the EC50 is reported as 14 nM.

B1: REGN-10987 (Imdevimab) (antibody, V domains shown)
VH: QVQLVESGGGVVQPGRSLRLSCAASGFTFSNYAMYWVRQAPGKGLEWVAVISYDGSNKYYADSVKGRFTISRDNSKNTLYLQMNSLRTEDTAVYYCASGSDYGDYLLVYWGQGTLVTVSS
VL: QSALTQPASVSGSPGQSITISCTGTSSDVGGYNYVSWYQQHPGKAPKLMIYDVSKRPSGVSNRFSGSKSGNTASLTISGLQSEDEADYYCNSLTSISTWVFGGGTKLTVL
With B1 the EC50 was > 100 nM.

From publication PMC8920075
